Experimental findings from patent publication US20250251406A1 are described below.

Experiment [1] deals with IL-17A/F dimer (Homo sapiens (Human)) (UniProt Q16552). The experiment can be described thus: Alphascreen (protein-protein interaction assay); inhibition of IL17AF with IL-17RA.
For experiment [2], the target named is IL-17F/F dimer (Homo sapiens (Human)) (UniProt Q96PD4). As to the kind of experiment: Alphascreen (protein-protein interaction assay); inhibition of IL17FF with IL-17RC.
Experiment [3] addresses IL-17A/A dimer (Homo sapiens (Human)) (UniProt Q16552). The experiment can be described thus: Alphascreen (protein-protein interaction assay); inhibition of IL17AA with IL-17RA.
The target is the same in experiment [4].
Experiment [5] addresses IL-17A/F dimer (Homo sapiens (Human)) (UniProt Q16552).

UniProt Q96PD4, sequence (Q96PD4 31-163 limits assumed): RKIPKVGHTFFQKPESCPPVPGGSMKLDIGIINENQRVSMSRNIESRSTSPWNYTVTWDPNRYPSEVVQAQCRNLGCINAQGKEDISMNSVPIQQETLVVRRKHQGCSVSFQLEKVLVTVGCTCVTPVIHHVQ

In experiment [1], sonelokimab (VHH) came in with an IC50 of 0.066 nM. Also, the IC50 in experiment [2] stood at 0.013 nM. In experiment [3], this substance registered an IC50 of 0.039 nM. Besides, in experiment [4], the % inhibition of CCL20 expression (TNF + IL17A/A stimulation) in keratinocytes, SLK 0.1 µg/mL was -66%; the % inhibition of CCL20 expression (TNF + IL17A/A stimulation) in keratinocytes, SLK 1 µg/mL is -66%; the % inhibition of CXCL8 expression (TNF + IL17A/A stimulation) in keratinocytes, SLK 0.1 µg/mL is -73%; the % inhibition of CXCL8 expression (TNF + IL17A/A stimulation) in keratinocytes, SLK 1 µg/mL is -88%. In experiment [5], the % inhibition of CCL20 expression (TNF + IL17A/F stimulation) in keratinocytes, SLK 0.1 µg/mL was -75%; the % inhibition of CCL20 expression (TNF + IL17A/F stimulation) in keratinocytes, SLK 1 µg/mL is -53%; the % inhibition of CXCL8 expression (TNF + IL17A/F stimulation) in keratinocytes, SLK 0.1 µg/mL is -61%; the % inhibition of CXCL8 expression (TNF + IL17A/F stimulation) in keratinocytes, SLK 1 µg/mL was -68%.
